Measured values taken from patent publication US20230365929A1, “METHOD OF DIFFERENTIATION OF PLURIPOTENT STEM CELLS TO RETINAL PIGMENT EPITHELIUM CELLS” (R.P. SCHERER TECHNOLOGIES, LLC, priority 2022, published 2023).

System: Human induced pluripotent stem cells (hiPSCs)
Experiment: RPE-specific markers expression in hiPSCs differentiated into RPE cells (RTqPCR; FACS)
Format: cell-based
Experimental: Day 0: overall undifferentiated and tight hiPSC morphology was confirmed to be at close to 100% confluency. Otherwise, the cells were fed once more with 4 ml prewarmed iPS Brew medium and instead differentiation was initiate the next day. KSR medium (4 ml needed per 6-well), PD0325901 (PD)/SB431542 (SB)/dorsomorphin (DM) aliquots, as well as Activin A were prepared and/or prewarmed. After thawing and thoroughly mixing all reagents, […] (1:1000 from 1 mM stock), […] (1:2000 from 10 mM stock), […] (1:2000 from 0.5 mM stock) and […] (1:400 from 10 μg/ml stock) were added to 4 ml KSR medium per confluent hiPSC culture well, after vigorously agitating culture plates and completely soaking off iPS Brew medium.
Days 1 and 2: media was prepared as above and old medium replaced on culture wells by 4 ml fresh differentiation medium per well, following vigorous agitation and complete media aspiration.
Day 3: KSR medium with Activin A only was prepared and old medium was replaced on culture wells by 4 ml fresh ActA-only differentiation medium per well, following vigorous agitation and complete media aspiration.
Day 4: fresh KSR+ActA differentiation medium was prepared and feed with 8 ml per well.
Second week: cells were fed daily with 4 ml per 6-well and 8 ml over the weekend.
Third and fourth weeks: no more small molecules were applied during the third and fourth weeks of differentiation. Only Activin A was added to basal media (either KSR or B27 medium) Activin A was added daily to prewarmed basal media, and old medium replaced on cells (1:100 thoroughly mixed).
Day 29 (week 5): newly coated dishes were prepared by coating 12-well (5 μl) or 6-well format (12 μl iM) with 4 x iMatrix-511 in PBS for 1 h at 37° C. KSR medium was prepared and prewarmed for splitting procedure. Differentiated cells were washed with PBS once (4 ml) or twice (2×2 ml), then 1 ml prewarmed TrypLE Se-lec was added. Cells were dissociated using a 1 ml pipette by pipetting up and down several times and results were checked under the microscope. Cell suspension was transferred to 15 ml tube and centrifuged at 300 g for 2 min. A portion of the cells was transferred into a 1.5 ml tube for downstream FACS and/or RT-qPCR analysis. Cells were resuspended in an appropriate amount of KSR medium and cell titer was determined using a Neubauer chamber. 400,000 cells per cm^2 were plated out in 6-well (with 4 ml KSR medium with or without Activin A24) or 12-well format (2 ml medium).
Samples to be analyzed by RT-qPCR were cells directly lysed from culture wells using RA1 buffer from the RNA isolation kit. […] RNA concentration was measured on NanoDrop monitoring A260/280 and A260/230 ratios. […]

B1: Activin A (protein, UniProt P08476 311-426, looked up)
Inhibin beta A chain: GLECDGKVNICCKKQFFVSFKDIGWNDWIIAPSGYHANYCEGECPSHIAGTSGSSLSFHSTVINHYRMRGHSPFANLKSCCVPTKLRPMSMLYYDDGQNIIKKDIQNMIVEECGCS
modifications: homodimer
notes: member of the TGFβ family of proteins; disulfide-linked homodimer (two beta-A chains)
RPE gene expression (Activin A treatment initiated after signaling inhibition (PSD then A) vs standard simultaneous protocol, FIG. 6): reduced RPE gene expression
induction of RPE cell fate (RTqPCR (OTX2, MITF, PMEL), complete withdrawal of the three small molecules, FIG. 5): insufficient for inducing RPE cell fate
induction of the RPE phenotype (RTqPCR of RPE-specific markers, non-treated vs Activin A only vs PSD+A, FIG. 2C): not sufficient to induce the RPE phenotype
RPE induction (titration of Activin A: concentration below 20 ng/ml or complete withdrawal, FIG. 7): inferior RPE induction
